The text below walks through data of publication doi:10.1101/2024.05.23.595491 (bioRxiv, 2024).

B1: GST-mGFP-SH3BP2-FLAG (natural protein)
chain: MAAEEMQWPVPMKAIGAQNLLTMPGGVAKAGYLHKKGGTQLQLLKWPLRFVIIHKRCIYYFKSSTSASPQGAFSLSGYNRVMRAAEETTSNNVFPFKIIHISKKHRTWFFSASSEDERKSWMAFVRREIGHFHEKKELPLDTSDSSSDTDSFYGAVERPIDISLSSYPMDNEDYEHEDEDDSYLEPDSPGPMKLEDALTYPPAYPPPPVPVPRKPAFSDLPRAHSFTSKSPSPLLPPPPPKRGLPDTGSAPEDAKDALGLRRVEPGLRVPATPRRMSDPPMSNVPTVPNLRKHPCFRDSVNPGLEPWTPGHGTSSVSSSTTMAVATSRNCDKLKSFHLSSRGPPTSEPPPVPANKPKFLKIAEEPSPREAAKFAPVPPVAPRPPVQKMPMPEATVRPAVLPRPENTPLPHLQRSPPDGQSFRGFSFEKARQPSQADTGEEDSDEDYEKVPLPNSVFVNTTESCEVERLFKATDPRGEPQDGLYCIRNSSTKSGKVLVVWDESSNKVRNYRIFEKDSKFYLEGEVLFASVGSMVEHYHTHVLPSHQSLLLRHPYGYAGPR

The data set “sedimentation assay” concerns the molecule itself. The experiment in a line: sedimentation assay.
The target of data set [1] is T1, SH3BP2-FLAG (full-length) (mouse, UniProt Q06649 1-559).
T1 sequence: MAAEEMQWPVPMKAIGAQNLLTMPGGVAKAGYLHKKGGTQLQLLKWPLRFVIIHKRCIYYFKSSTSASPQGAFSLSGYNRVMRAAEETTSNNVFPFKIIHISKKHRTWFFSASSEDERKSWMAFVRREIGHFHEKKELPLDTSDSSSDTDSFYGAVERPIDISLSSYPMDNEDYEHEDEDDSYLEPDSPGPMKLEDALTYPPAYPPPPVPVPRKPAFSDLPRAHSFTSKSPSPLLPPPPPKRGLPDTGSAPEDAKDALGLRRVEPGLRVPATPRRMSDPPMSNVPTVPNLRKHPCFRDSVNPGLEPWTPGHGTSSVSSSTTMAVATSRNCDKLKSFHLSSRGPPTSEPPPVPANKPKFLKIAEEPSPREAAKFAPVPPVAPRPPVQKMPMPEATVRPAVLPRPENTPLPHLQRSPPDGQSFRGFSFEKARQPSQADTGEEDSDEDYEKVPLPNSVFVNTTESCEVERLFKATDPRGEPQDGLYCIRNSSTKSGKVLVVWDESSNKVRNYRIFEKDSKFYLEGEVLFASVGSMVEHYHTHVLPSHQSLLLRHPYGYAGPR
The experiment in a line: co-IP.

The target in the data set “GST-mGFP-SH3BP2-FLAG” is B1. The experiment in a line: recruitment into protein droplets.

For the molecule B1, the binding result in the data set “sedimentation assay” was “binds”.

B2: GST-cytAChRα (domain or fragment)
chain: NTHHRSPSTHIMPEWVRKVFIDTIPNIMFFSTMKRPSRDKQEKRIFTEDIDISDISGKPGPPPMGFHSPLIKHPEVKSAIEGVKYIAETMKSDQESNNAAEEWKYVAMVMDH
For the molecule B2, in data set [1], the binding result is reported as “binds”.

B3: GST-cytAChRα-mCherry (domain or fragment)
chain: NTHHRSPSTHIMPEWVRKVFIDTIPNIMFFSTMKRPSRDKQEKRIFTEDIDISDISGKPGPPPMGFHSPLIKHPEVKSAIEGVKYIAETMKSDQESNNAAEEWKYVAMVMDH
For B3, in the data set with GST-mGFP-SH3BP2-FLAG, the binding result is given as “binds”.
